# Measurements: PMC5882628, “Development of a Cell-Based Assay to Assess Binding of the proNGF Prodomain to Sortilin” (Cellular and Molecular Neurobiology, 2017)
# Entries after “also recorded” stand apart in the source; their conditions may differ.
# T1: sortilin (Homo sapiens, UniProt Q99523)
# T1 construct: They were transfected with plasmids either encoding wild type sortilin, or sortilin with a mutation that renders it endocytosis deficient; expressed in transfected cells; host or cells: HEK 293 cells, transient transfection (lipofectamine)
# T1 sequence (Q99523 78-831): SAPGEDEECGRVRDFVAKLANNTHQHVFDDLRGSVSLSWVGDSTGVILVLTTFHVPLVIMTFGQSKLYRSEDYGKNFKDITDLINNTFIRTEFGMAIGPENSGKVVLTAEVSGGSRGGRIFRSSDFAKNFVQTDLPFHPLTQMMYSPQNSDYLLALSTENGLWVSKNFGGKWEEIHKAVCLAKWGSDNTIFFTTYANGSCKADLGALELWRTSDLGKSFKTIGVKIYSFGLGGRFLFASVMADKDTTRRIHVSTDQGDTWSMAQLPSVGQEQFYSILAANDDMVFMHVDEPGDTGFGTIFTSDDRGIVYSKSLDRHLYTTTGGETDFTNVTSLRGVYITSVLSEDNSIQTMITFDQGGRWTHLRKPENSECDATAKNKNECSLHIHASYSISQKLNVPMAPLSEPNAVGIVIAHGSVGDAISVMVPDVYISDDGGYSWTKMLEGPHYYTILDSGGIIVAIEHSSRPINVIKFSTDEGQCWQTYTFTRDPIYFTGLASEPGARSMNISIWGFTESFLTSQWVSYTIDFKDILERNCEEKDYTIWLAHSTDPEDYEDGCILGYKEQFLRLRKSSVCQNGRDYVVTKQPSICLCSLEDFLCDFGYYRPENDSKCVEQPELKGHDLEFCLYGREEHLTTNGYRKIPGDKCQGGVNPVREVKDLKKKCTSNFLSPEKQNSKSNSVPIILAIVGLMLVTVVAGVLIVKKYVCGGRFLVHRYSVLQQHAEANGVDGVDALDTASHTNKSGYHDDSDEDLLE
# Assays:
# sortilin [1] = biological target: T1, sortilin; assay: GSTpro binding to wt sortilin-transfected HEK293 cells, staining without detergent permeabilization; format: cell-based; conditions: versus staining with detergent, Fig. 6a vs 6b
# Experimental: HEK 293 cells were grown in DMEM with 10% fetal bovine serum. They were transfected with plasmids either encoding wild type sortilin, or sortilin with a mutation that renders it endocytosis deficient, or an empty control vector according to manufacturer’s instructions using 20 µg lipofectamine (Thermo Fischer Scientific) with 8 µg DNA on […] per 6 cm, poly-lysine coated dish. The cells were initially plated into 24-well dishes after transfection. That intermediate step rendered more uniform cell numbers in the 96-well dishes that were used to run the actual assay. 24 h later, cells were split into black opaque-walled, clear-bottom 96 well dishes at 42000 cells in 80 µl medium/well. […]
# (§1) The fixed cells were washed with PBS for 15 min, followed by two 15 min washes with PBS with 0.1% Triton X-100. […] Wells to be evaluated for blocking of the sortilin-GSTpro interaction by antibodies were only stained with an antibody against the pro domain of proNGF in 10% FBS at a dilution of 1:1500 (Millipore (N-term) clone EPI318Y, Rabbit Monoclonal Antibody Catalog Number: #04-1142). […]
# (§2) The following day, wells were washed 3 × 15 min with PBS/0.1% Triton X-100. […] Cellular fluorescence was quantified using an array scanner and the “Neuronal Profiler” Bioapplication (Thermo Fisher Scientific) as described below.
# [2] = Precipitation and sticking to culture dishes; reagent stability; format: physicochemical; conditions: GSTpro versus proNGF
# From the text: This behavior led to more diffuse staining compared to GSTpro. […] Given the complications driven by the biophysical properties of proNGF, we pursued GSTpro as a source of the pro binding domain.
# Due to reasons of stability of the proNGF protein and the specificity of binding, we recommend use of GSTpro in the assay, rather than recombinant proNGF. […] Although not formally tested by us, there may have been inconsistencies in the batches of proNGF protein used in the studies. As extracellular fluorescence could increase false positive cells by automated detection, proNGF was less reliable as a reagent in our assay (not shown). Both GSTpro and proNGF compete for binding to the sortilin receptor, it is likely that their binding sites are similar or at least overlap. Detection with GSTpro was more specific than with proNGF. […] The assay has the potential to use a tenfold lower concentration of GSTpro (5 nM, cf. Fig. 6v).
# sortilin [3] = biological target: T1, sortilin; assay: Cell-based assay of GSTpro (NGF prodomain) binding/uptake, wt sortilin-transfected HEK293 cells, sortilin/GST double stain, high content imaging, with detergent; conditions: for signal and assay window, GSTpro compared to proNGF (in words): Fig. 3u, sortilin-transfected cells
# Experimental: HEK 293 cells were grown in DMEM with 10% fetal bovine serum. They were transfected with plasmids either encoding wild type sortilin, or sortilin with a mutation that renders it endocytosis deficient, or an empty control vector according to manufacturer’s instructions using 20 µg lipofectamine (Thermo Fischer Scientific) with 8 µg DNA on […] per 6 cm, poly-lysine coated dish. The cells were initially plated into 24-well dishes after transfection. That intermediate step rendered more uniform cell numbers in the 96-well dishes that were used to run the actual assay. 24 h later, cells were split into black opaque-walled, clear-bottom 96 well dishes at 42000 cells in 80 µl medium/well. […] 1 h after that treatment, the medium was replaced with 80 µl medium containing the same antibody, compounds or peptides included in the preincubation medium, plus recombinant GSTpro or proNGF (either purified in-house from recombinant HEK cells or derived from an E.coli expression system at either 0 nM (negative control), or 50 nM, or, in a few instances at 5 or 10 nM. The respective concentrations are indicated in the figures 45 min after adding GSTpro or proNGF, cells were washed twice with prewarmed PBS and fixed in 4% PFA for 20 min at approximately 20 °C.
# as §1, §2
# Sortilin-GSTpro interaction was also assessed using HEK cell derived cell lines stably expressing sortilin. […]
# Images from 96 well dishes were automatically recorded with a Cellomics ArrayScan VTI HCS Reader (Thermo Scientific) using a 10× microscope objective and the build-in standard autofocus method. Fifteen 1024 × 1024 images in 4 channels (Channel 1 and 2: Filter XF5–Hoechst, to detect nuclei and all cells; Channel 3: XF53-Texas Red to detect, e.g., sortilin-positive cells; Channel 4: Filter XF93 – FITC, to detect cells positive, e.g., for the proNGF pro domain) were recorded per 96 well.
# The images were analyzed with the Cellomics assay algorithm NeuronalProfiling.V3.5.
molecule,measurement,setting,value
"GSTpro: fusion of Glutathione S-transferase (GST) merged at the C-terminal of GST to the pro part (19–121) of human proNGF (protein, left off: GST, N-terminal, kept, fusion of Glutathione S-transferase (GST) merged at the C-terminal of GST to the pro part (19–121) of human proNGF) EPHSESNVPAGHTIPQAHWTKLQHSLDTALRRARSAPAAAIAARVAGQTRNITVDPRLFKKRRLRSPRVLFSTQPPREAADTQDLDFEVGGAAPFNRTHRSKR",reduction of GSTpro signal without permeabilization,sortilin [1]; cells expressing sortilin below the set threshold,less than half reduced
same,reduction of GSTpro signal without permeabilization,sortilin [1]; sortilin-positive cells,almost fourfold reduced; also recorded: much lower GSTpro signal
same,stability compared to proNGF (in words),[2],more stable than proNGF
same,"signal and assay window, GSTpro compared to proNGF (in words)",sortilin [3],substantially larger compared to proNGF
same,"signal and assay window, GSTpro compared to proNGF (in words)",sortilin [3]; listed as GST-pro,larger signal and assay window
same,"GSTpro signal, sortilin-positive versus sortilin-negative (or control-transfected) cells (in words)","sortilin [3]; Figs. 3, 4b, 6, 7, 8",highly enhanced GSTpro uptake or binding; also recorded: several fold higher GSTpro signal in sortilin-positive cells
